From publication doi:10.1101/293811 (bioRxiv, 2018)

Target: alanine or glycine:cation symporter (AgcS) from Methanococcus maripaludis (Methanococcus maripaludis, UniProt Q6LX42)
Assay: crystal structure

alanine or glycine:cation symporter (AgcS) from Methanococcus maripaludis, sequence (Q6LX42 whole entry): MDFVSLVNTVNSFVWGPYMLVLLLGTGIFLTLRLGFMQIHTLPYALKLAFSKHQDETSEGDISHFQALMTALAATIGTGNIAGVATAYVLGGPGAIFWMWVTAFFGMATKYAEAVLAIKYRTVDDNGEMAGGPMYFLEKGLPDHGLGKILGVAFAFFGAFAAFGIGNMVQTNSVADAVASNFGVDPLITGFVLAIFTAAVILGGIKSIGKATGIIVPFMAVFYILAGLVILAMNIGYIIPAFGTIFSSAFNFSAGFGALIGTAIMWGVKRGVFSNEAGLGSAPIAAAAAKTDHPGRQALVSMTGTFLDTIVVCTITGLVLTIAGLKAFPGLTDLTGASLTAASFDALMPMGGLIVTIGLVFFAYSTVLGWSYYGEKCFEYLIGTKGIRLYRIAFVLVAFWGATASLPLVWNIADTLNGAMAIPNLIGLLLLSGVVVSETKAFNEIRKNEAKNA

binding result: binds
B1: 7B4 Fab fragment (Fab, V domains shown)
VH: EVKLEESGGGLVQPGGSMKLSCAASGFTSSDFAMDWVRQSPEAGLEWVAEIAASERHYAESVKGRFTISRDDSKSSVYLQMNSLRAEDSGLYYCTRTAGACGQWGTGTTVTVSS
VL: DIAMTQSPASLSASVGETVTITCRTSENIASALAWYQQKQGKSPQLLVMNAKTLAAGVPSRFSGSGSGTAFSLKINSLQPEDFGSYSCQHAAGWLLTFGGGTKLEIK
